Data as given in US20160058880A1 (LIFE SCIENCES RESEARCH PARTNERS VZW, published 2016).
Numbered stars: 1 amine (or outer) side, 2 acyl side, 3 side chain; on linkers, the order of the positions; unused ones are H or OH. Square brackets hold non-standard residues; d marks the D form. * marks the point of attachment. Doxorubicin(3'-N) = COc1cccc2c1C(=O)c1c(O)c3c(c(O)c1C2=O)C[C@@](O)(C(=O)CO)C[C@@H]3O[C@H]1C[C@H](N*)[C@H](O)[C@H](C)O1; Phosphonoacetyl = O=C(CP(=O)(O)O)*; Suc = O=C(CCC(=O)[*:2])[*:1]; βAla = NCCC(=O)O

B1: PhAc-KLGP-doxorubicin (peptide)
peptide: Phosphonoacetyl-KLGP-{Doxorubicin(3'-N)}
SMILES: COc1cccc2c1C(=O)c1c(O)c3c(c(O)c1C2=O)C[C@@](O)(C(=O)CO)C[C@@H]3O[C@H]1C[C@H](NC(=O)[C@@H]2CCCN2C(=O)CNC(=O)[C@H](CC(C)C)NC(=O)[C@H](CCCCN)NC(=O)CP(=O)(O)O)[C@H](O)[C@H](C)O1
B2: PhAc-ALGP-doxorubicin (peptide)
peptide: Phosphonoacetyl-ALGP-{Doxorubicin(3'-N)}
SMILES: COc1cccc2c1C(=O)c1c(O)c3c(c(O)c1C2=O)C[C@@](O)(C(=O)CO)C[C@@H]3O[C@H]1C[C@H](NC(=O)[C@@H]2CCCN2C(=O)CNC(=O)[C@H](CC(C)C)NC(=O)[C@H](C)NC(=O)CP(=O)(O)O)[C@H](O)[C@H](C)O1
B3: PhAc-GPGP-doxorubicin (peptide)
peptide: Phosphonoacetyl-GPGP-{Doxorubicin(3'-N)}
SMILES: COc1cccc2c1C(=O)c1c(O)c3c(c(O)c1C2=O)C[C@@](O)(C(=O)CO)C[C@@H]3O[C@H]1C[C@H](NC(=O)[C@@H]2CCCN2C(=O)CNC(=O)[C@@H]2CCCN2C(=O)CNC(=O)CP(=O)(O)O)[C@H](O)[C@H](C)O1
B4: PhAc-TSGP-doxorubicin (peptide)
peptide: Phosphonoacetyl-TSGP-{Doxorubicin(3'-N)}
SMILES: COc1cccc2c1C(=O)c1c(O)c3c(c(O)c1C2=O)C[C@@](O)(C(=O)CO)C[C@@H]3O[C@H]1C[C@H](NC(=O)[C@@H]2CCCN2C(=O)CNC(=O)[C@H](CO)NC(=O)[C@@H](NC(=O)CP(=O)(O)O)[C@@H](C)O)[C@H](O)[C@H](C)O1
B5: PhAc-DLGP-doxorubicin (peptide)
peptide: Phosphonoacetyl-DLGP-{Doxorubicin(3'-N)}
SMILES: COc1cccc2c1C(=O)c1c(O)c3c(c(O)c1C2=O)C[C@@](O)(C(=O)CO)C[C@@H]3O[C@H]1C[C@H](NC(=O)[C@@H]2CCCN2C(=O)CNC(=O)[C@H](CC(C)C)NC(=O)[C@H](CC(=O)O)NC(=O)CP(=O)(O)O)[C@H](O)[C@H](C)O1
B6: PhAc-ALPF-doxorubicin (peptide)
peptide: Phosphonoacetyl-ALPF-{Doxorubicin(3'-N)}
SMILES: COc1cccc2c1C(=O)c1c(O)c3c(c(O)c1C2=O)C[C@@](O)(C(=O)CO)C[C@@H]3O[C@H]1C[C@H](NC(=O)[C@H](Cc2ccccc2)NC(=O)[C@@H]2CCCN2C(=O)[C@H](CC(C)C)NC(=O)[C@H](C)NC(=O)CP(=O)(O)O)[C@H](O)[C@H](C)O1
B7: PhAc-AIGP-doxorubicin (peptide)
peptide: Phosphonoacetyl-AIGP-{Doxorubicin(3'-N)}
SMILES: CC[C@H](C)[C@H](NC(=O)[C@H](C)NC(=O)CP(=O)(O)O)C(=O)NCC(=O)N1CCC[C@H]1C(=O)N[C@H]1C[C@H](O[C@H]2C[C@](O)(C(=O)CO)Cc3c(O)c4c(c(O)c32)C(=O)c2c(OC)cccc2C4=O)O[C@@H](C)[C@H]1O

Key:
[1] = molecular target: TOP (recombinant human thimet oligopeptidase, R&D systems, Ref 3439-ZN) (human, UniProt P52888 1-689, limits assumed); assay: cell-based or functional assay
TOP (recombinant human thimet oligopeptidase, R&D systems, Ref 3439-ZN), sequence (P52888 whole entry): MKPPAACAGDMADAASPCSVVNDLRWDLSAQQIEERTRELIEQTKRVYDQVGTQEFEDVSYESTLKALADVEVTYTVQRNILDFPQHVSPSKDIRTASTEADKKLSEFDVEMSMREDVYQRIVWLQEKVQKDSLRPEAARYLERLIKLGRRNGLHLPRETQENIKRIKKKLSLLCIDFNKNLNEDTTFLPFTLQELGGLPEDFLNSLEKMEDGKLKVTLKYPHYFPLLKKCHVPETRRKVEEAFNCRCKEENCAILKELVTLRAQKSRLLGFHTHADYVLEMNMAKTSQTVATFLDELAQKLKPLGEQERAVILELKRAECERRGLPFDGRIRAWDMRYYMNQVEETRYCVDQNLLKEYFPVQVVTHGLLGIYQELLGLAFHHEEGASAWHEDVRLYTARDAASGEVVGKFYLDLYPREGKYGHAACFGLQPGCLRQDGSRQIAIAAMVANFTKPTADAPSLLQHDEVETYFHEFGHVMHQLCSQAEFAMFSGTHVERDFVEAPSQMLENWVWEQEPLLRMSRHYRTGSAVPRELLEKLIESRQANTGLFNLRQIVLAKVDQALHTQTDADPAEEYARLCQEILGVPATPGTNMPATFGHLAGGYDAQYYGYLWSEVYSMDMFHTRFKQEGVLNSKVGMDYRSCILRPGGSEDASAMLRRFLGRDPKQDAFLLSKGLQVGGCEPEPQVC

[2] = molecular target: CD10 (recombinant human neprilysin, R&D systems, Ref 1182-ZN) (human, UniProt P08473 53-750); assay: cell-based or functional assay
CD10 (recombinant human neprilysin, R&D systems, Ref 1182-ZN), sequence (P08473 53-750 limits assumed): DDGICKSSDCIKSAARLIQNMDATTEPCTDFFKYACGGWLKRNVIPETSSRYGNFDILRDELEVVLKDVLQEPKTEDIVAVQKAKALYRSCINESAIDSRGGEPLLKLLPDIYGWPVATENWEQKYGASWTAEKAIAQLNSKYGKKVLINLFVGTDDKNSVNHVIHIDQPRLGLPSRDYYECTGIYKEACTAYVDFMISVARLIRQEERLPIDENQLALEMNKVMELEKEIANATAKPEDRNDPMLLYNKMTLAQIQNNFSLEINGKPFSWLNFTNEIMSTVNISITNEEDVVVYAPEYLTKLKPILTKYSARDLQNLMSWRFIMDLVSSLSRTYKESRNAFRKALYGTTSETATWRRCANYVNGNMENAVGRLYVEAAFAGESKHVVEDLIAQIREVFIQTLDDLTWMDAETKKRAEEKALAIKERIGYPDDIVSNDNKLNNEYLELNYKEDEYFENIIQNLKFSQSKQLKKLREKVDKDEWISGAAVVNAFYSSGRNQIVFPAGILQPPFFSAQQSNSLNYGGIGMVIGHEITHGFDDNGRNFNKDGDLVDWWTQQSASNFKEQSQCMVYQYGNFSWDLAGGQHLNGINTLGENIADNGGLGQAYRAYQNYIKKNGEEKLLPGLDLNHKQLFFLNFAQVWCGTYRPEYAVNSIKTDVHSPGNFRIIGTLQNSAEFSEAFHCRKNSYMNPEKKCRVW

Binder | % Metabolites released after 3 h with TOP 5 nM (GP-Dox) [1] [%] | % Metabolites released after 3 h with CD10 10 nM [2] [%] | % Metabolites released after 3 h with TOP 5 nM [1] [%]
B1 | 31 | – | –
B2 | 72 | – | –
B3 | – | 0 | 0
B4 | 38 | 0 | –
B5 | – | 0 | 0
Suc-[βAla]LPF-doxorubicin [Succinyl-βALPF-doxorubicin] | – | – | 0
B6 | – | 0 | –
B7 | < 5 | – | –
